Assay results from publication PMC5147862 (PLoS ONE, 2016).

B1: RRAS1, mGppNHp-bound (natural protein, human, UniProt P10301 1-218, looked up)
chain: MSSGAASGTGRGRPRGGGPGPGDPPPSETHKLVVVGGGGVGKSALTIQFIQSYFVSDYDPTIEDSYTKICSVDGIPARLDILDTAGQEEFGAMREQYMRAGHGFLLVFAINDRQSFNEVGKLFTQILRVKDRDDFPVVLVGNKADLESQRQVPRSEASAFGASHHVAYFEASAKLRLNVDEAFEQLVRAVRKYQEQELPPSPPSAPRKKGGGCPCVLL
notes: human RRAS1 (R-Ras); Loaded with mGppNHp; That the RAS proteins are the ones made with pGEX is surmised
B2: RRAS2 (or TC21), mGppNHp-bound (natural protein, human, UniProt P62070 1-204, looked up)
chain: MAAAGWRDGSGQEKYRLVVVGGGGVGKSALTIQFIQSYFVTDYDPTIEDSYTKQCVIDDRAARLDILDTAGQEEFGAMREQYMRTGEGFLLVFSVTDRGSFEEIYKFQRQILRVKDRDEFPMILIGNKADLDHQRQVTQEEGQQLARQLKVTYMEASAKIRMNVDQAFHELVRVIRKFQEQECPPSPEPTRKEKDKKGCHCVIF
notes: human RRAS2 (TC21); Loaded with mGppNHp; That the RAS proteins are the ones made with pGEX is surmised; also called RRAS2-mGppNHp

Legend:
Assay in all cases: fluorescence polarisation; MBP-tagged effector domain (0.05-100 μM) titrated to 1 μM RAS-mGppNHp; 50 mM Tris/HCl pH 7.5, 100 mM NaCl, 5 mM MgCl2, 3 mM dithiothreitol, 25°C; quadratic ligand binding equation
Details in all cases: both partners purified
HRAS, mGppNHp-bound = molecular target: T1, HRAS, mGppNHp-bound (human, UniProt P01112 1-189)
T1 construct: human HRAS; Loaded with the fluorescent non-hydrolysable GTP analog mant-GppNHp (mGppNHp); That the RAS proteins are the ones made with pGEX is surmised

NRAS, mGppNHp-bound = molecular target: T2, NRAS, mGppNHp-bound (human, UniProt P01111 1-189)
T2 construct: human NRAS; Loaded with mGppNHp; That the RAS proteins are the ones made with pGEX is surmised
T2 sequence (P01111 whole entry): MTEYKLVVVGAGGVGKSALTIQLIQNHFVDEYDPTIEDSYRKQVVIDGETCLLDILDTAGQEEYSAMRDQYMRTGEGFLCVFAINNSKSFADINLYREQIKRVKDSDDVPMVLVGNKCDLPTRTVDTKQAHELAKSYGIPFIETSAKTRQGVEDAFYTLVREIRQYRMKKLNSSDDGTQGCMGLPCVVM

RRAS1, mGppNHp-bound = molecular target: B1
[1] = molecular target: B2
[2] = molecular target: T3, RAS binding (RB) domain of PI3Kα, MBP fusion (human, UniProt P42336 169-301)
T3 construct: human PI3Kα, RB domain, aa 169-301; also called PI3Kα-RB
T3 sequence (P42336 169-301): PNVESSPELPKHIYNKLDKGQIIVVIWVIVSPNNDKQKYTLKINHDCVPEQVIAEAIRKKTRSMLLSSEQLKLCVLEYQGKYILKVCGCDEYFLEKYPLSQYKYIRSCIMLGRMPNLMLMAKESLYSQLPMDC

Row | Kd (HRAS, mGppNHp-bound) | Kd (NRAS, mGppNHp-bound) | Kd (RRAS1, mGppNHp-bound) | Kd [1] | Kd [2] | Binder
1 | 238 nM | 442 nM | 11.5 µM | 10 µM | – | RAS association (RA) domain of RASSF5, MBP fusion (domain or fragment, human, UniProt Q8WWW0 200-358, looked up, human RASSF5, RA domain, aa 200-358; also called RASSF5-RA) EETQRPPTLQEIKQKIDSYNTREKNCLGMKLSEDGTYTGFIKVHLKLRRPVTVPAGIRPQSIYDAIKEVNLAATTDKRTSFYLPLDAIKQLHISSTTTVSEVIQGLLKKFMVVDNPQKFALFKRIHKDGQVLFQKLSIADRPLYLRLLAGPDTEVLSFV
2 | – | – | – | – | 11 µM | B1
3 | – | – | – | – | 18.1 µM | B2
4 | – | – | 114 µM | 145 µM | – | RAS association (RA) domain of PLCε, MBP fusion (domain or fragment, human, UniProt Q9P212 2130-2240, looked up, human PLCε, RA domain (RA2), aa 2130-2240; also called PLCε-RA2) LSSEEESFFVQVHDVSPEQPRTVIKAPRVSTAQDVIQQTLCKAKYSYSILSNPNPSDYVLLEEVVKDTTNKKTTTPKSSQRVLLDQECVFQAQSKWKGAGKFILKLKEQVQ
